What was measured:
[1] = molecular target: ribosomes (80S monosomes and polysomes) (S. cerevisiae (endogenous in BY4741)); experiment: co-sedimentation; formaldehyde-crosslinked cell extracts (unstressed or H2O2-treated) on 15-50% sucrose gradients, SW41 Ti 2.5 hr at 278,000 x g, 4°C; fractions western blotted
[2] = molecular target: ribosomes (80S monosomes and polysomes) (S. cerevisiae (endogenous in BY4741)); experiment: co-sedimentation; polysomal proteomics: formaldehyde-crosslinked extracts (unstressed, H2O2, 3-AT) on 15-50% sucrose gradients, fractions F1-F5 against totals by label-free MS; percent ribosome association estimated from the fraction sum to total ratio

Binder | percent in ribosomal fractions [1] [%] | percent ribosome associated (H2O2-treated extract) [1] [%] | percent ribosome associated (H2O2-treated extract) [2] [%]
Aat2-TAP (cytosolic aspartate aminotransferase with a C-terminal TAP tag) (enzyme) MSATLFNNIELLPPDALFGIKQRYGQDQRATKVDLGIGAYRDDNGKPWVLPSVKAAEKLIHNDSSYNHEYLGITGLPSLTSNAAKIIFGTQSDAFQEDRVISVQSLSGTGALHISAKFFSKFFPDKLVYLSKPTWANHMAIFENQGLKTATYPYWANETKSLDLNGFLNAIQKAPEGSIFVLHSCAHNPTGLDPTSEQWVQIVDAIASKNHIALFDTAYQGFATGDLDKDAYAVRLGVEKLSTVSPVFVCQSFAKNAGMYGERVGCFHLALTKQAQNKTIKPAVTSQLAKIIRSEVSNPPAYGAKIVAKLLETPELTEQWHKDMVTMSSRITKMRHALRDHLVKLGTPGNWDHIVNQCGMFSFTGLTPQMVKRLEETHAVYLVASGRASIAGLNQGNVEYVAKAIDEVVRFYTIEAKL | 10 | 13 | –
Aat2 (cytosolic aspartate aminotransferase), untagged (enzyme) MSATLFNNIELLPPDALFGIKQRYGQDQRATKVDLGIGAYRDDNGKPWVLPSVKAAEKLIHNDSSYNHEYLGITGLPSLTSNAAKIIFGTQSDAFQEDRVISVQSLSGTGALHISAKFFSKFFPDKLVYLSKPTWANHMAIFENQGLKTATYPYWANETKSLDLNGFLNAIQKAPEGSIFVLHSCAHNPTGLDPTSEQWVQIVDAIASKNHIALFDTAYQGFATGDLDKDAYAVRLGVEKLSTVSPVFVCQSFAKNAGMYGERVGCFHLALTKQAQNKTIKPAVTSQLAKIIRSEVSNPPAYGAKIVAKLLETPELTEQWHKDMVTMSSRITKMRHALRDHLVKLGTPGNWDHIVNQCGMFSFTGLTPQMVKRLEETHAVYLVASGRASIAGLNQGNVEYVAKAIDEVVRFYTIEAKL | – | – | 9

Reference: PMC9191892
